Measured values as given in patent US20250205280A1 (Janssen / Centocor, published 2025).

T1: IL1RAP on H1975 cells (human, UniProt Q9NPH3 21-570)
T1 construct: whole, on cells; also called ILIRAP; H1975 tumor cell line expressing ILIRAP
T1 sequence (looked up): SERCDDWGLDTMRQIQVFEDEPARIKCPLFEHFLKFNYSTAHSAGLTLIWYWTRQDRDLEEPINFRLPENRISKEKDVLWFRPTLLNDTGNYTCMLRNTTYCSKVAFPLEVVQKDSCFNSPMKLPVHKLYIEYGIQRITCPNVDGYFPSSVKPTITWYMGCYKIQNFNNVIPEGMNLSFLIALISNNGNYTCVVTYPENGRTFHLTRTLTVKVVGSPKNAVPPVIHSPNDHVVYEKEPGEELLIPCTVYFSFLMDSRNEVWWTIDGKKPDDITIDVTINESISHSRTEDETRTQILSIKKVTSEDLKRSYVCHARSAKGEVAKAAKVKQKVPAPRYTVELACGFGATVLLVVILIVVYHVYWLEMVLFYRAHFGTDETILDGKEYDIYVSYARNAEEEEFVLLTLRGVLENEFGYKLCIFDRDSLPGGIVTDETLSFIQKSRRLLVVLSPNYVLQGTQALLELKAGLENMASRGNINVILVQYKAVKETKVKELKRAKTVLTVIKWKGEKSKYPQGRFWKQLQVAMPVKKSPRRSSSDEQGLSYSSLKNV

B1: Vβ17/Null (bispecific antibody, human IgG4 S228P, kappa, F234A L235A)
Vβ17 half antibody (B17B21; light chain, linker and heavy chain in one polypeptide): DIQMTQSPSSLSASVGDRVTITCRSSQSLVHSNGNTYLHWYQQKPGKAPKFLIYKVSNRFSGVPSRFSGSGSGTDFTLTISSLQPEDFATYYCSQSTHVPFTFGQGTKLEIKRTVAAPSVFIFPPSDEQLKSGTASVVCLLNNFYPREAKVQWKVDNALQSGNSQESVTEQDSKDSTYSLSSTLTLSKADYEKHKVYACEVTHQGLSSPVTKSFNRGECGGSEGKSSGSGSESKSTEGKSSGSGSESKSTGGSQVQLQESGPGLVKPSETLSLTCTVSGYSITSGYFWNWIRQPPGKGLEWIGYISYDGSNNYNPSLKSRVTISRDTSKNQFSLKLSSVTAADTAVYYCASPSPGTGYAVDYWGQGTLVTVSSASTKGPSVFPLAPCSRSTSESTAALGCLVKDYFPEPVTVSWNSGALTSGVHTFPAVLQSSGLYSLSSVVTVPSSSLGTKTYTCNVDHKPSNTKVDKRVESKYGPPCPPCPAPEAAGGPSVFLFPPKPKDTLMISRTPEVTCVVVDVSQEDPEVQFNWYVDGVEVHNAKTKPREEQFNSTYRVVSVLTVLHQDWLNGKEYKCKVSNKGLPSSIEKTISKAKGQPREPQVYTLPPSQEEMTKNQVSLSCAVKGFYPSDIAVEWESNGQPENNYKTTPPVLDSDGSFFLVSRLTVDKSRWQEGNVFSCSVMHEALHNRFTQKSLSLSLGK
null half antibody (B23B49; light chain, linker and heavy chain in one polypeptide): not shown
notes: also called Vβ17/NULL arm control bispecific antibody; Vβ17XNULL
B2: Vβ17/IL1RAP bispecific antibody (bispecific antibody, human IgG4 S228P, kappa, lambda, F234A L235A)
chain 1: DIQMTQSPSSLSASVGDRVTITCRSSQSLVHSNGNTYLHWYQQKPGKAPKFLIYKVSNRFSGVPSRFSGSGSGTDFTLTISSLQPEDFATYYCSQSTHVPFTFGQGTKLEIKRTVAAPSVFIFPPSDEQLKSGTASVVCLLNNFYPREAKVQWKVDNALQSGNSQESVTEQDSKDSTYSLSSTLTLSKADYEKHKVYACEVTHQGLSSPVTKSFNRGECGGSEGKSSGSGSESKSTEGKSSGSGSESKSTGGSQVQLQESGPGLVKPSETLSLTCTVSGYSITSGYFWNWIRQPPGKGLEWIGYISYDGSNNYNPSLKSRVTISRDTSKNQFSLKLSSVTAADTAVYYCASPSPGTGYAVDYWGQGTLVTVSSASTKGPSVFPLAPCSRSTSESTAALGCLVKDYFPEPVTVSWNSGALTSGVHTFPAVLQSSGLYSLSSVVTVPSSSLGTKTYTCNVDHKPSNTKVDKRVESKYGPPCPPCPAPEAAGGPSVFLFPPKPKDTLMISRTPEVTCVVVDVSQEDPEVQFNWYVDGVEVHNAKTKPREEQFNSTYRVVSVLTVLHQDWLNGKEYKCKVSNKGLPSSIEKTISKAKGQPREPQVYTLPPSQEEMTKNQVSLSCAVKGFYPSDIAVEWESNGQPENNYKTTPPVLDSDGSFFLVSRLTVDKSRWQEGNVFSCSVMHEALHNRFTQKSLSLSLGK
chain 2: QSALTQPRSVSGSPGHSVTISCTGTSSDVGDYNYVSWYQQRPGKVPKLLIYDVSKRPSGVPDRFSGSKSGNTASLTISGLQAEDEAIYFCASYAGNYNVVFGGGTKLTVLGQPKAAPSVTLFPPSSEELQANKATLVCLISDFYPGAVTVAWKADSSPVKAGVETTTPSKQSNNKYAASSYLSLTPEQWKSHRSYSCQVTHEGSTVEKTVAPTECSGGSEGKSSGSGSESKSTEGKSSGSGSESKSTGGSQVQLVQSGSELKKPGASVKVSCKASGYTFNTYAMNWVRQAPGQGLEWMGWINTNTGNPTYAQGFTGRFVFSLDTSVSTAYLQISSLKAEDTAVYYCARRYFDWLLGAFDIWGQGTMVTVSSASTKGPSVFPLAPCSRSTSESTAALGCLVKDYFPEPVTVSWNSGALTSGVHTFPAVLQSSGLYSLSSVVTVPSSSLGTKTYTCNVDHKPSNTKVDKRVESKYGPPCPPCPAPEAAGGPSVFLFPPKPKDTLMISRTPEVTCVVVDVSQEDPEVQFNWYVDGVEVHNAKTKPREEQFNSTYRVVSVLTVLHQDWLNGKEYKCKVSNKGLPSSIEKTISKAKGQPREPQVYTLPPSQEEMTKNQVSLWCLVKGFYPSDIAVEWESNGQPENNYKTTPPVLDSDGSFFLYSRLTVDKSRWQEGNVFSCSVMHEALHNHYTQKSLSLSLGK
notes: also called Vβ17XIL1RAP

Key:
[1] = target: T2, Vβ17 (TRBV19) T cell receptor on Vβ17+CD8+ T cells (human); assay: flow cytometry on M1 peptide expanded CD8+ T cells, PE anti-human IgG4 secondary, % binding; bottom left panel, second EC50 line, square curve (right of the circles)
T2 construct: whole, on cells; also called Vβ17+ T cells
T2 sequence (A0A075B6N1 22-114): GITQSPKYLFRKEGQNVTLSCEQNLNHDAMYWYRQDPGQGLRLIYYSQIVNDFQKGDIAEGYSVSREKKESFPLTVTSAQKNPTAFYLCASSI
Description: (§1) Binding of Vβ17 bispecific antibodies to its respective tumor associated antigen (TAA) expressing cell line and CD8+ T cells was carried out by flow cytometry. Briefly, 50,000 target cells or CD8+ T cells were incubated at 4° C. for 45 minutes with serial dilutions of various bispecific antibodies or its null arm control bispecific antibodies. After washing with wash buffer (PBS+2% FBS), bispecific antibody bound to cell surface was detected by incubating the cells with PE labelled mouse anti human IgG4 secondary antibody (SouthernBiotech, Birmingham, AL) for 30 minutes at 4° C. Cells were washed with wash buffer (PBS+2% FBS) and the fluorescence of stained cells was measured on Novocyte flow cytometer. Cells were visualized on forward and sideward scatter and doublets were excluded. No secondary antibody control was used to establish background fluorescence and to gate on specific population. Background value was subtracted from main samples to get specific binding value. […] For all binding assays, tumor associated antigen (TAA) expression on cell lines and the abundance of Vβ17+ cells among Pan-T cells or CD8+ T cells were assessed by staining them with specific monoclonal antibody.
(§2) Mouse anti-human IgG4 Fc-PE secondary antibody was used to detect the bispecific antibody using FACS method.

[2] = target: T3, CD123 on Kasumi-3 cells (UniProt P26951 19-378, limits assumed); assay: flow cytometry on Kasumi-3 cells, % binding; top left panel
T3 construct: whole, on cells; also called tumor associated antigen (TAA) on Kasumi-3
T3 sequence (P26951 19-378 limits assumed): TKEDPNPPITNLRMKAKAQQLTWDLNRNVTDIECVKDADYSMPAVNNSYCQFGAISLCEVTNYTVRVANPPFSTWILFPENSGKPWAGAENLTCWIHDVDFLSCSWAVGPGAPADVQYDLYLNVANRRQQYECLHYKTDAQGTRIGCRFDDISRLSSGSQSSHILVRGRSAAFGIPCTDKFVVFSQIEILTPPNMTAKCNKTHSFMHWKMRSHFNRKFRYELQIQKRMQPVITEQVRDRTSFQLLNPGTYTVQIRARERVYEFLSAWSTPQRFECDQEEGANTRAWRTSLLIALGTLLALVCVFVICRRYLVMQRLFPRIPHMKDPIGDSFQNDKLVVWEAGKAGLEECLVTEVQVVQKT

[3] = target: T1, IL1RAP on H1975 cells; assay: flow cytometry on H1975 cells, % binding; top right panel
[4] = target: T4, PSMA on 22Rv1 cells (human, UniProt Q04609 1-750); assay: flow cytometry on 22Rv1 cells, % binding; top middle panel
T4 construct: whole, on cells; also called 22Rv1 tumor cell line expressing PSMA
T4 sequence (Q04609 whole entry): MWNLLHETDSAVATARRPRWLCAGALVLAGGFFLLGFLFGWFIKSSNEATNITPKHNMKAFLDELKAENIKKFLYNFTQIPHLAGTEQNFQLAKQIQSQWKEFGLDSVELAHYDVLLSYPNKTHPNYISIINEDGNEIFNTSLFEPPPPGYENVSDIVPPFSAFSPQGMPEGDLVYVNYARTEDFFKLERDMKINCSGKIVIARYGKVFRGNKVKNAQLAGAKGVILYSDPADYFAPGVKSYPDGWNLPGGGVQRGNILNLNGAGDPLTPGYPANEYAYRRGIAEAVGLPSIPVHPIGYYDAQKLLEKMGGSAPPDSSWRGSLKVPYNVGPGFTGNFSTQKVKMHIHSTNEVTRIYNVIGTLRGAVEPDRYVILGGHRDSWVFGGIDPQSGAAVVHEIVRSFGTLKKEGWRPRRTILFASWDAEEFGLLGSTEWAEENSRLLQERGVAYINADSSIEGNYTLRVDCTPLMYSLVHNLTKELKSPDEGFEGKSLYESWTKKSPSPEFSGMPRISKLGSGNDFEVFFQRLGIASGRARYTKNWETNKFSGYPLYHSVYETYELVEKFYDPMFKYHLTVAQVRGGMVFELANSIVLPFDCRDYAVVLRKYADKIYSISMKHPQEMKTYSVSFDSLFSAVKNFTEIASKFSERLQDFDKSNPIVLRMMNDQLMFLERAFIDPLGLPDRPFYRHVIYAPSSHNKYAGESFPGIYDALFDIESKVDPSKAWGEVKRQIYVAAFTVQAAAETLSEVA

[5] = target: T2, Vβ17 (TRBV19) T cell receptor on …; assay: flow cytometry on total (Vβ17 non-depleted) CD8+ T cells from PBMCs, % binding
Description: as §1

[6] = target: T2, Vβ17 (TRBV19) T cell receptor on …; assay: flow cytometry on M1 peptide expanded CD8+ T cells, PE anti-human IgG4 secondary, % binding; bottom middle panel, second EC50 line, square curve (right of the circles)
Description: as §1, §2

[7] = target: T2, Vβ17 (TRBV19) T cell receptor on …; assay: flow cytometry on M1 peptide expanded CD8+ T cells, PE anti-human IgG4 secondary, % binding; bottom right panel, second EC50 line, square curve (right of the circles)
Description: as §1, §2

[8] = target: T1, IL1RAP on H1975 cells; assay: flow cytometry on H1975 cells expressing IL1RAP, detected with anti-human IgG4 Fc-PE
Description: as §1

[9] = target: T2, Vβ17 (TRBV19) T cell receptor on …; assay: flow cytometry on enriched M1 peptide-stimulated CD8+ T cells (day 14), frequency of positive cells, anti-human IgG4 Fc-PE
Description: as §1, §2

[10] = target: T2, Vβ17 (TRBV19) T cell receptor on …; assay: flow cytometry on M1 peptide expanded CD8+ T cells, PE anti-human IgG4 secondary, % binding; bottom right panel, first EC50 line, circle curve (left of the squares)
Description: as §1, §2

Binder	EC50 [1]	binding result [2]	binding result [3]	binding result [4]	EC50 (read off the curve) [5]	EC50 [6]	EC50 [7]	EC50 [8]	EC50 [9]	EC50 [10]
B1	2.4 nM	no binding (tested: about 5 µg/mL)	no binding (tested: about 30 µg/mL)	no binding (tested: 10 µg/mL)	~0.3 µg/mL	3.75 nM	2.8 nM			
B2								11.3 nM	2.8 nM	0.33 nM
